In a protein production outcome set (Wang et al. 2014):

Assay: label from the status in PepcDB records
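Further: failed if final PepcDB status was selected cloned or expressed and not failed if soluble or beyond.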

| Sequence | protein production |
| --- | --- |
| MEIILNSGGTFVILAAVVGFFMAWGIGANDVANAMGTSVGSKALTIKQAIIIAMIFEFAGAYLAGGEVTSTIRKGIIDASYFVDSPELLVYGMISALFAAATWLLIASALGWPVSTTHSIVGAIVGFAAVGVSTDAVEWGKVVGIVGSWIITPLISGIIAFIIFNSAQKLIFDTDKPLQQAKRWVPAYMFLAGFVLSLVTIKKGLKHIGLENVNLGFVNFEIKGAGGFYLAAIVAIIVAIIGKFFISRLKFDENLAKEAHYVNVEKVFAILMIVTACAMAFAHGSNDVANAIGPLAAVVSIVEHDGQIAAKSAIAWWILPLGGFGIVAGLALFGHKVIATIGQGITHLTPSRGFAAELAAASTVVIASGAGLPISTTQTLVGAVLGVGMARGIAAINLGVVRNIVVSWVITLPVGAGLSIVFFWIMQATFS | failed |
| MEIINLTYIPLGVYNYYKSNNQEVKMQTIDISELELLTESENPVIVDVREDFEYNSGHVPNAKNIPLSQLEERYAEITDGTYLICQSGARSARACQYLSTKGIDTINISGGTIAWNGP | failed |
| MEIKPGLSALVTGGASGIGRALCLALAEKGVFVTVADFSEEKGQETTSLVREANAKFHQGLSFPSAIFVKCDVTNRGDLLAAFDKHLATFGTLDICINNAGISTPLRFDKDDTDGSKSWKHTINVDLIAVVEGTQLAIKAMKAKQKPGVIINMGSAAGLYPMPVDPIYAASKAGVVLFTRSLAYYRRQGIRINVLCPEFIKTDLAEAIDASILESIGGYMSMDMLIKGAFELITDEKKAGACLWITKRRGLEYWPTPMEETKYLVGSSSRKRPSFKVSTKIEFPQSFEKMIVHTLSHKFRSATRIVRAPLQLPIGPHQVLLKIIYAGVNASDVNFSSGRYFTGGSPKLPFDAGFEGVGLIAAVGESVKNLEVGTPAAVMTFGAYSEYMIVSSKHVLPVPRPDPEVVAMLTSGLTALIALEKAGQMKSGETVLVTAAAGGTGQFAVQLAKLSGNKVIATCGGSEKAKLLKELGVDRVIDYKSENIKTVLKKEFPKGVNIIYESVGGQMFDMCLNALAVYGRLIVIGMISQYQGEKGWEPAKYPGLCEKILAKSQTVAGFFLVQYSQLWKQNLDKLFNLYALGKLKVGIDQKKFIGLNAVADAVEYLHSGKSTGKVVVCIDPAFEQKTSRL | failed |
| MEISFTRVALLAAALFFVGCDQKPQPAKTHATEVTVLEGKTMGTFWRASIPGIDAKRSAELKEKIQTQLDADDQLLSTYKKDSALMRFNDSQSLSPWPVSEAMADIVTTSLRIGAKTDGAMDITVGPLVNLWGFGPEQQPVQIPSQEQIDAMKAKTGLQHLTVINQSHQQYLQKDLPDLYVDLSTVGEGYAADHLARLMEQEGISRYLVSVGGALNSRGMNGEGLPWRVAIQKPTDKENAVQAVVDINGHGISTSGSYRNYYELDGKRLSHVIDPQTGRPIEHNLVSVTVIAPTALEADAWDTGLMVLGPEKAKEVVRREGLAVYMITKEGDSFKTWMSPQFKSFLVSEKN | not failed |
| MEITIFGKGNMGQAIGHNFEIAGHEVTYYGSKDQATTLGEIVIMAVPYPALAALAKQYATQLKGKIVVDITNPLNFDTWDDLVVPADSSAAQELQQQLPDSQVLKAFNTTFAATLQSGQVNGKEPTTVLVAGNDDSAKQRFTRALADSPLEVKDAGKLKRARELEAMGFMQMTLAASEQIGWTGGFAVVK | failed |
| MEIVFLGGAKEVGASCVLIKAGGKNILLDSGIRMKEDKLPNLQLLRELGGADVCLISHAHLDHIGSLPLIAREYPHIFFYTNQPTKDLIKVLLYDSLKIMDAKEDEIPIYAEKNVEDLLDRTITYGFNYTFEPLEGIKVTFFPAGHILGASMIFIQTQEGSVLYTGDFSTDKQLTVDKASIPKIRPDVVICESTYGDRLHTNRNYEEERLFNSIYEFISKGGKVLIPAFAIGRAQEIILILRNYMKKKKVEFNVFIDGMVREVIRVYKNNPTFLSSRYYKKVLKGEEIFLSDNIDIITDKKQREEIMSSSDPCVIISSSGMLTGGPSVFYAEKLVENQNALIAITGYQDEESPGRKLLELTELPESERKIELNGKEYEVKCKVEKYGLSAHADRDSILGFLAMLKPKTVVFAHGSEEAISQLSDMAIKEIESAVLIPQNGEMNTISIEKPRRQLSFFNVKKLSNIEPLNEENIKSLWEYLLESKQEANHITAEHAILIWNGKQFLERDEVNRVFELLKSSPYFEQNPRKPYLFRILSRTEVENKLKPKPMEQNKMRELAFEMFKDFGLYKVGMDNENVVVTFYFNFPHIANRLEDKIKEFEEKTLWKVEVNPNINLTYAQKYLQKLLEDEGVKLLKFSYNPVINAIVVKPNKEFDSMKELCSKFLDETGIELIFDIENKEDCTARLQNKDRMEQNKALLLIDLYFENEKDKVYKKSIKEGGKYIELSFVTPFVAEKYKDKLNELSQKTGWEIRISQTINQVEMVNILKDILAKYNIDLIKNPSIYPSIREVRIKLAGEIDSNIVNEIANEFYDRTGFYLKI | failed |
| MEKAGMHRTLNYRLRFDIPLVGKDCEYALVQDLPASVYISTDELDDLQRLKRLNAIYPKFVNIEVATERAQPFSVLLRGTPKITESLALPVHFRYHAPSDKRLAATVAIPLPELYLNCPMADSALIENELVARPDKLYCLNAPESRFDENHIKDGQPTTMANLERCNWRRVHVDCQLKMPLRAEIPVGHASAYGPVLCGTILLGWSLALWTIIHSMANTRRINQRLNEQRLLQQKVK | failed |
| MEKEMEDKEEFDEGEIEYTSYAGEHHLPLIMSLVDQELSEPYSIFTYRYFVYLWPQLCFLAFHKGKCVGTIVCKMGDHRQTFRGYIAMLVVIKPYRGRGIASELVTRAIKAMMESGCEEVTLEAEVSNKGALALYGRLGFIRAKRLYHYYLNGMDAFRLKLLFPKPRVPQIPSQVQTQQEYETFPRPRVP | failed |
| MEKFMYSLGVSKKDKIYKDLLKIAIPTAIEFFLFNFISLTDNAMVAYLGDYPVAGVSLANKFFELFVTIGFSMAGAYNIIATRQYNQGDFKSFRNTFFISILTIILFSFPFILISIVNPFFLLRLISNDERAVYYGAAYLNIAIFSFVFAIIKGLIANALKVVEIVKFQVYISVFSVLLNFVFNYIFIFVFHMGVVGAAIATTVIRTLELIVYLVCTAFNKNSILHFKLDDLNINIKPFAQLIKFFIPILLNEFAWFFGYLVLTSIFIGIDTHKYAAYSISFSIYFIIFNIIHSFCISLNIMMGYEMHNSKKEIMKVAIYLSKIGLKLAFLTSFVLFIFSFFAPYIFYTLKYSHLIGIILRYSSVSAFFMALAFQYLFGFFRAGASPSFGAIMEGSVTFVYTIPIAFVLANYTNLPFEIIVFIPSLEDAIKLVVSLPYFYSERWIKSV | failed |
| MEKILDLLMSFVKEDEGKLDLASFPLRNTTAGAHLLLKTENVVASGIEVSRMFLEKMGLLSKFNVEDGEYLEGTGVIGEIEGNTYKLLVAERTLLNVLSVMFSVATTTRRFAEKLKHAKIAATRKILPGLGVLQKIAVVHGGGDPHRLDLSGCVMIKDNHLKMYGSAERAVQEVRKIIPFTTKIEVEVENLEDALRAVEAGADIVMLDNLSPEEVKDISRRIKDINPNVIVEVSGGITEENVSLYDFETVDVISSSRLTLQEVFVDLSLEIQR | not failed |
| MEKILDNIDKSMNIIISLFTIYNLIRGFWLNKNKKQLEKQREDLQKKLHQQNISNNNNISNSFNTTIHNETNIKNEIIDINQDLKNTLKSRNTSRNIAYIFTIFLFVLSFILYVIHYFKEQFKGYTIADFINSFIPSFEKLTDILTISYKSAIIVLLIINLIIAVLVILISMLKLKLKWRVAVSSLLYGILNYYVLISASSIDSKDIHYSIQEPKLSFIISFLYLMVGFITAFFSNYILYSYLFNSEFEDELFNQTIKRFFIWLALTVLFAFLSFINYHNGLQITLNFIKNLLNLI | failed |
| MEKKLKRRESMSTTAAESPPAKRRRTVTGNENSALIEGLPDHISEICLSLVHRPSLLSAVCTRWRRLLYSPEFPSFPSLYALFVDSTSDTGRVNPSVRFMCFNPVSSKWYPLPPPPPDPPLHRILYRHPSFISFNLPIQCVSAAGKLILIAGSNQQLSPAISHPLIFDPISSSWSSGPRIGSPRRWCATGACDGAIYIASGISSQFSSTVAKSVEKLDLTEQNRNNHRFNWEKLRDMRDLRFSREAIDAVGYRRKLLMVNVKGDAVKEGAIYDVVKDDWEPMPEEMLVGWRGPVAAMEEEILYSVDERRGTVRKYDDEKREWREVVVVEGGEEMLKGATQVTADSGKLCVVTGDGKIVVVDVAAEPAKIWNVEIPDGLEPVSVHVLPRMSQPNFC | failed |
